# Experimental data published in patent publication US20160108093A1 (WISCONSIN ALUMNI RESEARCH FOUNDATION, published 2016).
# Where no end group is shown, it is not given here. [ ]: non-standard residue; d: D form.
# B1: CG2 (peptide)
# peptide: cyclo(SKV[dP]PTIAALLSPYSYSQ)
# SMILES: CC[C@H](C)[C@@H]1NC(=O)[C@H]([C@@H](C)O)NC(=O)[C@@H]2CCCN2C(=O)[C@H]2CCCN2C(=O)[C@H](C(C)C)NC(=O)[C@H](CCCCN)NC(=O)[C@H](CO)NC(=O)[C@H](CCC(N)=O)NC(=O)[C@H](CO)NC(=O)[C@H](Cc2ccc(O)cc2)NC(=O)[C@H](CO)NC(=O)[C@H](Cc2ccc(O)cc2)NC(=O)[C@@H]2CCCN2C(=O)[C@H](CO)NC(=O)[C@H](CC(C)C)NC(=O)[C@H](CC(C)C)NC(=O)[C@H](C)NC(=O)[C@H](C)NC1=O
# B2: CG3 (peptide)
# peptide: cyclo(SKVVT[dP]PRYTIAALLSPYSYSQ)
# SMILES: CC[C@H](C)[C@@H]1NC(=O)[C@H]([C@@H](C)O)NC(=O)[C@H](Cc2ccc(O)cc2)NC(=O)[C@H](CCCNC(=N)N)NC(=O)[C@@H]2CCCN2C(=O)[C@H]2CCCN2C(=O)[C@H]([C@@H](C)O)NC(=O)[C@H](C(C)C)NC(=O)[C@H](C(C)C)NC(=O)[C@H](CCCCN)NC(=O)[C@H](CO)NC(=O)[C@H](CCC(N)=O)NC(=O)[C@H](CO)NC(=O)[C@H](Cc2ccc(O)cc2)NC(=O)[C@H](CO)NC(=O)[C@H](Cc2ccc(O)cc2)NC(=O)[C@@H]2CCCN2C(=O)[C@H](CO)NC(=O)[C@H](CC(C)C)NC(=O)[C@H](CC(C)C)NC(=O)[C@H](C)NC(=O)[C@H](C)NC1=O
# How the values were obtained:
# [1] = target: the molecule itself; experiment: self-association: PICUP cross-linking of the peptide alone at 36 µM, gel, silver staining
# Description: Peptides were also cross-linked by PICUP and analyzed for self-association. […] Cross-linked samples were then heated at 95° C. for 5 min and separated on a 10-20% Tris-Tricine gradient gel. Peptides were visualized by silver staining (SilverStain Kit, Pierce, Rockford, Ill.).
# Peptide self-assembly was probed by photo-induced crosslinking (PICUP) followed by gel electrophoresis.
# Aβ (1-42) = Aβ (1-42) (UniProt P05067 672-713); experiment: cell-based or functional assay
binder,measurement,setting,value
Ac-PRRYTIAALLSPYSWS-NH2 (also called 16-mer linear peptide) [G16],binding result,[1],binds
B1,"Aβ toxicity, MTS assay with primary mouse neuronal cultures (10 µM Aβ)",Aβ (1-42),10 µM
B2,"Aβ toxicity, MTS assay with primary mouse neuronal cultures (10 µM Aβ)",Aβ (1-42),10 µM
SKVVT[dP]PRYTIAALLSPYSYSQ [LG3],"Aβ toxicity, MTS assay with primary mouse neuronal cultures (10 µM Aβ)",Aβ (1-42),10 µM
